Experimental data: the RNAGym collection of RNA variant scans (doi:10.7554/elife.80360)

B1: HDV Ribozyme (parent)
chain: GGCCGGCAUGGUCCCAGCCUCCUCGCUGGCGCCGGCUGGGCAACAUUCCGAGGGGACCGUCCCCUCGGUAAUGGCGAAUGGGACCCA

Variants of: B1
Test: self-cleavage, relative activity (ratio to wild type); higher = more cleavage; co-transcriptional

Variant | self-cleavage
GGCCGGCAUGGUCCCAGCCUCCUCGCUGGCGCCGGGUGGGCAACAUUCCGAGGGGACCGUCCCCCCGGUAAUGGCGAAUGGGACCCA [C36G U65C] | 0.18
GGCCGGCAUGGUCCCAGCCUCCUCGCUUGCGCCGGCUGGGCAACAUUCCGAGGGGACCGUCCCCUCGGUAAUGGCGAAUGUGACCCA [G28U G81U] | 0.202
GGCCGGCAUGGUCCCAGCCUCCUCGCCGGCGCCGGCUGGGCAACAUUCCGAGGGGACCGUCCCCUCGGUAAUGGCGAAUGGGACCGA [U27C C86G] | 1.2
GGCCGGCAUGGUCCCAGCCUCCUCGCUGGCGCCGGCUAGGCAACAUUCCGAGGGGCCCGUCCCCUCGGUAAUGGCGAAUGGGACCCA [G38A A56C] | 0.13
GGCCGGCAUGGUCCCAGCCUCCUCGCUGGCGCCGGCUGGGCAACAGUCUGAGGGGACCGUCCCCUCGGUAAUGGCGAAUGGGACCCA [U46G C49U] | 0.8
GGCCGGCUUGGUCCCAGCCUCCUCGCUGGCGCCAGCUGGGCAACAUUCCGAGGGGACCGUCCCCUCGGUAAUGGCGAAUGGGACCCA [A8U G34A] | 0.242
GGCCGGCAUGGUCCCAGCCUCCUCGCUGGCGCCGGCUGGGCAACAUUCCGAGGGGACCGUCCCGACGGUAAUGGCGAAUGGGACCCA [C64G U65A] | 0.799
GGCCGGCAUGGUCCCAGCCUCCUCGCUGGCGCCGGCUGGGCAACAUUCCGAGGGGACCGUCCCGUCGGUACUGGCGAAUGGGACCCA [C64G A71C] | 0.68
GUCCGGCAUGGUCCCAGCCUCCUCGCUGGCGCCGGCUGGGAAACAUUCCGAGGGGACCGUCCCCUCGGUAAUGGCGAAUGGGACCCA [G2U C41A] | 0.0589
GGCCGGCAUGGUCCCAGCCUCCUCGCUGGCGCCGGCUGGGCAACAUUCCGAGGGGACCGUCCCCUCGGUAAUGGCGGACGGGACCCA [A77G U79C] | 0.443
GGCCGGCAUGGUCCCAACCUCCUCGCUGCCGCCGGCUGGGCAACAUUCCGAGGGGACCGUCCCCUCGGUAAUGGCGAAUGGGACCCA [G17A G29C] | 0.0405
GGCCGGCAUGGUCCGAGCCUCCUCGCUGGCGCCGUCUGGGCAACAUUCCGAGGGGACCGUCCCCUCGGUAAUGGCGAAUGGGACCCA [C15G G35U] | 0.0396
GGCCGGCAUGGUCCCAGCCUCCUCGCUGGCGCCGGCUGGGCAACAUUCCGAGGGGACCGUCCCCUCGGUAAUGGUGAAUGGAACCCA [C75U G82A] | 0.202
GGCCGGCAUGAUCCCAGCCUCCUCGCUGGCGCCGGCUGGGCAACAUUCCGAGGGGACCGUCCCCUAGGUAAUGGCGAAUGGGACCCA [G11A C66A] | 0.308
GGCCGGCAUGGUCCCAGCCUCCUCGCAGGCGCCGGCUGGGCAACAUUCCGAGGGGACCGUCCCCUCGGUAAUGGCGAAUGGGACCCA [U27A] | 0.916
GGCCGGCAUGGUCCCAGCCUCCACGCUGGCGCCGGCUGGGCAACAUUCCGAGGGGACCGUCCCCUCGGUAAUGGCGAGUGGGACCCA [U23A A78G] | 0.697

Variant | self-cleavage
GGCCGGCAUGGUCCCAGCCUCCUCGCUCGCGCCGGCUGGGCAACAUUCCGAGGGGACCGUCCCCUCGGUAAUGGCGAAUGGGACUCA [G28C C85U] | 0
GGCCGGCAUGGUCCCAGCCUCAUCGCUGGCGCCGGCUGGGCAACAUUCCGAGGGGACCGGCCCCUCGGUAAUGGCGAAUGGGACCCA [C22A U60G] | 0.177
GGCCGGCACGGUCCCAGCCUCCUCGCUGGCGCCGGCUGGGCAACACUCCGAGGGGACCGUCCCCUCGGUAAUGGCGAAUGGGACCCA [U9C U46C] | 0.831
GGCCGGCAUGGUCCCAGCCUCCUCGCUGGCGCCGGCUGCGUAACAUUCCGAGGGGACCGUCCCCUCGGUAAUGGCGAAUGGGACCCA [G39C C41U] | 0.554
GGCCGGCAUGGUCCCAGGCUCCUCGCUGGCGCCGGCUGCGCAACAUUCCGAGGGGACCGUCCCCUCGGUAAUGGCGAAUGGGACCCA [C18G G39C] | 0.0755
GGCCGGCAUGGUCCCAACCUCCUCGCUGGCGCCGGCUGGGCAACAUUCGGAGGGGACCGUCCCCUCGGUAAUGGCGAAUGGGACCCA [G17A C49G] | 0.565
GGCCGGCAUGGUCCCAGCCUCCUCGCUAGCGCUGGCUGGGCAACAUUCCGAGGGGACCGUCCCCUCGGUAAUGGCGAAUGGGACCCA [G28A C33U] | 0.0234
GGCCGGCAUGGUUCCAGCCUCCUCGCUGGCGCCGGCUGGGCAACAUACCGAGGGGACCGUCCCCUCGGUAAUGGCGAAUGGGACCCA [C13U U47A] | 0.646
GGCCGGCAGGGUCCCAGCCUCCUCGCUGGCGCCGGCUGGGCAACAUUCCGAGGGGACCGUCCCCUCGGUACUGGCGAAUGGGACCCA [U9G A71C] | 0.787
GGCCGGCAUGGUCCCAGCCUCCUCGCUAGCGCCGGCUGGUCAACAUUCCGAGGGGACCGUCCCCUCGGUAAUGGCGAAUGGGACCCA [G28A G40U] | 0.0256
GGCCGGCAUGGUCCCAGCCUCCUCGCUGGCGCCGGCUGAGCAACAUUCCGAGGGGACCGUCCCCUCGGUAAUGGCGAAUGGGCCCCA [G39A A83C] | 0.277
GGCCGGCAAGGUCCCAGACUCCUCGCUGGCGCCGGCUGGGCAACAUUCCGAGGGGACCGUCCCCUCGGUAAUGGCGAAUGGGACCCA [U9A C18A] | 0.107
GGCCGGCAUGGUCCCAGCCUCCUCGCUGGCGCCGGCUGGGCAACAUUCCGAGGGGACCGUCCACUCGGUAAUGGCGAAUGAGACCCA [C63A G81A] | 0.446
CGCCGGCAUGGUCCCAACCUCCUCGCUGGCGCCGGCUGGGCAACAUUCCGAGGGGACCGUCCCCUCGGUAAUGGCGAAUGGGACCCA [G1C G17A] | 0.332
CGCCGGCAUGGUCCCAUCCUCCUCGCUGGCGCCGGCUGGGCAACAUUCCGAGGGGACCGUCCCCUCGGUAAUGGCGAAUGGGACCCA [G1C G17U] | 0.0573
GGCCGGCAUGGUCCCAGUCUCCUCGCUGGCGCCGGCUGGGCAACAUUCCGAGGGGACCGGCCCCUCGGUAAUGGCGAAUGGGACCCA [C18U U60G] | 0.633
